B1: Nb 729A04 (VHH)
VHH: EVQLVESGGGVVQPGGSLRLSCAASGFTFSDYAMSWVRQAPGKGLEWVSGITSGGGRTYYADSVKGRFTISRDNSKNTLYLQMNSLRPEDTALYYCAAVRTLGLRGSYDYWGQGTLVTVSS
notes: monovalent Nanobody; not shown: C-terminal FLAG3 and HIS6 tag
B2: Nb 730C03 (VHH)
VHH: B1 VHH with A23V, G55S, L79V, V99A, R100I, T101L, L102R, L104Y, G106K, S107T
notes: monovalent Nanobody; also called Nb 730003; not shown: C-terminal FLAG3 and HIS6 tag
B3: Nb 701C06 (VHH)
VHH: EVQLVESGGGVVQPGGSLRLSCAASGRTFSTYAMGWFRQAPGKEREFVAAISRRGGRTYYADSVKGRFTISRDNSKNTVYLQMNSLRPEDTALYYCAADATARDGLLDYWGQGTLVTVSS
notes: as for B1
B4: Nb 701D07 (VHH)
VHH: EVQLVESGGGVVQPGGSLRLSCAASGGTLSRYAMGWFRQAPGKEREFVAAITRRGSRTYYADSVKGRFTISRDNSKNTVYLQMNSLRPEDTALYYCAADLAPGDYALDYWGQGTLVTVSS
notes: as for B1
B5: Nb 702C12 (VHH)
VHH: B3 VHH with A23V, T31R, R57S, Y59N, A100Y, T101S, A102S, R103G, L106Y
notes: as for B1
B6: Nb 729C08 (VHH)
VHH: EVQLVESGGGVVQPGGSLRLSCAASGFTFSDYAMSWVRQAPGKGLEWVSGITGGGRTYYADSVKGRFTISRDNSKNTLYLQMNSLRPEDTALYYCAAAILTRTRRTYDYWGQGTLVTVSS
notes: monovalent Nanobody; also called Nb 729008; not shown: C-terminal FLAG3 and HIS6 tag
B7: Nb 501A02 (VHH)
VHH: EVQLVESGGGLVQPGGSLRLSCAASGFTFSNYEMSWVRQAPGKGLEWVSDIGSGGGVSTYYADSVKGRFTISRDNAKNTLYLQMNSLKPEDTAMYYCARGWTYGSDGMDYWGKGTLVTVSS
notes: monovalent control Nanobody; also called control Nanobody; not shown: C-terminal FLAG3 and HIS6 tag

Positions count from the first letter of the chain named. Ends that are not written are not given here.

The target of one test is T1, FX activation peptide 12-mer QTQPERGDNNLT (human).
T1 peptide: QTQPERGDNNLT-biotin
Briefly: peptide ELISA. The method in brief:
(§1)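 Nanobodies (FLAG-tagged) or IgG antibodies, 2 μg/mL, incubated 1 h on C-terminally biotinylated peptide captured via streptavidin, washing buffer pH 8.60 containing CaCl₂ and Tween 20. Read-out: HRP-conjugated secondary antibody with TMB colour development.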
As to B1, the “ELISA signal relative to background” value was 1.11.
For B2, the “ELISA signal relative to background” value is 1.1.
As for B3, the “ELISA signal relative to background” value was determined as 0.93.
Consider B4, for which the “ELISA signal relative to background” value was determined as 0.79.
Regarding B5, the “ELISA signal relative to background” value was 0.88.
On to B6, for which the “ELISA signal relative to background” value stood at 1.04.
In the case of B7, the “ELISA signal relative to background” value amounted to 0.76 and the binding result was “no binding (tested: 2 µg/mL)”.

The target of another test is T2, FX activation peptide 12-mer TSSSGEAPDSIT (human).
T2 peptide: TSSSGEAPDSIT-biotin
Put plainly: peptide ELISA. The essentials:
as §1
In general terms: ELISA stands for enzyme-linked immunosorbent assay.
As to B1, the “ELISA signal relative to background” value worked out at 1.12.
For B2, the “ELISA signal relative to background” value was 1.2.
Still for that read-out and setting: under B3 stands 0.87.
For B4, the “ELISA signal relative to background” value turned out to be 0.75.
Still for that read-out and setting: with B5 the figure was 0.77; with B6, 1.06.
Turning to B7, the “ELISA signal relative to background” value is 0.76 and the binding result was “no binding (tested: 2 µg/mL)”.

The next test addresses T3, FX activation peptide 12-mer WKPYDAADLDPT (human).
T3 peptide: WKPYDAADLDPT-biotin
Briefly: peptide ELISA. The essentials:
as §1
Turning to B1, the “ELISA signal relative to background” value turned out to be 1.2.
B2: the “ELISA signal relative to background” value came to 1.14.
For B3, the “ELISA signal relative to background” value amounted to 0.99.
Same read-out and setting: with B4 the figure was 0.85.
Consider B5, for which the “ELISA signal relative to background” value stood at 0.89.
Turning to B6, the “ELISA signal relative to background” value amounted to 1.08.
In the case of B7, the “ELISA signal relative to background” value was 0.74 and the binding result is reported as “no binding (tested: 2 µg/mL)”.

The next test addresses T4, FX activation peptide 12-mer PFDLLDFNQTQP (human).
T4 peptide: PFDLLDFNQTQP-biotin
Put plainly: peptide ELISA. The essentials:
as §1
With B2, the “ELISA signal relative to background” value amounted to 1.23.
As for B5, the “ELISA signal relative to background” value turned out to be 4.95.
As to B6, the “ELISA signal relative to background” value is 1.18.
Turning to B7, the “ELISA signal relative to background” value worked out at 0.79 and the binding result is “no binding (tested: 2 µg/mL)”.

The next test concerns the target T5, FX activation peptide 12-mer SSGEAPDSITWK (human).
T5 peptide: SSGEAPDSITWK-biotin
Briefly: peptide ELISA. The essentials: as §1
On to B1, for which the “ELISA signal relative to background” value worked out at 0.96.
On to B2, for which the “ELISA signal relative to background” value came out at 1.22.
As for B3, the “ELISA signal relative to background” value came out at 0.89.
Consider B4, for which the “ELISA signal relative to background” value was 0.74.
On the same count and under the same terms, under B5 stands 0.88; under B6, 1.06.
For the molecule B7, the “ELISA signal relative to background” value came to 0.71 and the binding result is “no binding (tested: 2 µg/mL)”.

The target of another test is T6, FX activation peptide 12-mer ATSSSGEAPDSI (human).
T6 peptide: ATSSSGEAPDSI-biotin
Briefly: peptide ELISA. The method in brief:
as §1
On to B1, for which the “ELISA signal relative to background” value came out at 1.24.
With B2, the “ELISA signal relative to background” value was determined as 1.19.
Still for that read-out and setting: with B3 the figure was 0.91; with B4, 0.86; with B5, 0.98.
In the case of B6, the “ELISA signal relative to background” value is 1.13.
B7: the “ELISA signal relative to background” value was found to be 0.82 and the binding result is listed as “no binding (tested: 2 µg/mL)”.

Another test deals with T7, FX activation peptide 12-mer LLDFNQTQPERG (human).
T7 peptide: LLDFNQTQPERG-biotin
Put plainly: peptide ELISA. The essentials:
as §1
For B1, the “ELISA signal relative to background” value was found to be 1.1.
Take B2: the “ELISA signal relative to background” value is 1.1.
For the molecule B3, the “ELISA signal relative to background” value is 1.03.
On to B4, for which the “ELISA signal relative to background” value came out at 0.8.
On the same count and under the same terms, under B6 stands 1.13.
With B7, the “ELISA signal relative to background” value is 0.79 and the binding result is recorded as “no binding (tested: 2 µg/mL)”.

For the next test, the target named is T8, FX activation peptide 12-mer TENPFDLLDFNQ (human).
T8 peptide: TENPFDLLDFNQ-biotin
Put plainly: peptide ELISA. The essentials:
as §1
For B1, the “ELISA signal relative to background” value amounted to 9.12.
As for B2, the “ELISA signal relative to background” value was found to be 2.1.
As for B5, the “ELISA signal relative to background” value is 4.84.
On the same count and under the same terms, under B6 stands 3.14.
As for B7, the “ELISA signal relative to background” value turned out to be 1.09 and the binding result was “no binding (tested: 2 µg/mL)”.

The target of the next test is human activated Factor X (human, UniProt P00742 41-179; P00742 235-488). Put plainly: cell-based or functional assay.
Chain of human activated Factor X (P00742 41-179, chain 1 of 2): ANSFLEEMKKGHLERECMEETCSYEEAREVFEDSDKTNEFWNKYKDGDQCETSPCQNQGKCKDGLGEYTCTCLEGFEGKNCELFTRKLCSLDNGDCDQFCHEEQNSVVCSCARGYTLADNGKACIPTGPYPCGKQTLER
Chain of human activated Factor X (P00742 235-488, chain 2 of 2): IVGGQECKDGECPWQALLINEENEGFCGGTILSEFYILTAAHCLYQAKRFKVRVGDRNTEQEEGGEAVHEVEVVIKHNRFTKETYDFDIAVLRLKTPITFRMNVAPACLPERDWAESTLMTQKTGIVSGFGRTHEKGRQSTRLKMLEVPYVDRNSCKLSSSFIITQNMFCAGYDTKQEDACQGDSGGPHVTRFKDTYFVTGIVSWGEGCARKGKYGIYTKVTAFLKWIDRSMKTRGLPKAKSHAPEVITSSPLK
For the molecule B1, the “FXa amidolytic activity (relative to free FXa, fold)” value came out at 1.11 fold.
Regarding B2, the “FXa amidolytic activity (relative to free FXa, fold)” value was found to be 1.01 fold.
On the same count and under the same terms, under B3 stands 1.06 fold; under B4, 1.05 fold.
Same read-out and setting: under B5 stands 1.05 fold.
Turning to B6, the “FXa amidolytic activity (relative to free FXa, fold)” value was determined as 1.09 fold.

The target in the next test is T9, human plasma-derived Factor X zymogen (human, UniProt P00742 41-179; P00742 183-488).
T9 construct: Plasma-derived, bought (Haematologic Technologies); also called FX; human FX
T9 sequence (P00742 41-179, chain 1 of 2): as the sequence (P00742 41-179, chain 1 of 2) above
T9 sequence (P00742 183-488, chain 2 of 2): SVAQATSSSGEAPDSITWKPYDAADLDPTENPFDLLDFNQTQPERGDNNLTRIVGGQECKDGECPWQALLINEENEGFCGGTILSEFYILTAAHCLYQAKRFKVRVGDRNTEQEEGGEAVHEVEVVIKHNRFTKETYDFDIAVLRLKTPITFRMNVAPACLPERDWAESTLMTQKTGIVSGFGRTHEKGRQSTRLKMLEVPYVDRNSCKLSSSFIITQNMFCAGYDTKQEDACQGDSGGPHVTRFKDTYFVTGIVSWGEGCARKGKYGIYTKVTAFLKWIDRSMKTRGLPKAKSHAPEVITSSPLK
Put plainly: SPR steady state, Nb captured by anti-His mAb, FX injected. As for the experimental part:
Binding of purified anti-FX Nanobodies (Nb) to human plasma-derived FX (Haematologic Technologies Inc, USA) was probed by Surface Plasmon Resonance (SPR) (Biacore T200). Briefly, anti-His mAb (MAB050 from R&D systems) was immobilised on a CM4 sensor chip using standard amine coupling chemistry. Anti-FX Nanobodies (10 nM), according to Table 3, was injected at a flow rate of 10 μL/min for 1 minute. Subsequently 4096, 1024, 256, 64, 16, 4, and 0 nM of FX were injected at a flow rate of 30 μL/min for 4 minutes to allow for binding to anti-FX Nb followed by a 5 minutes running buffer (10 mM HEPES, 150 mM NaCl, 5 mM CaCl₂, 0.05% (v/v) Surfactant P20, 1 mg/mL bovine serum albumin, pH 7.4) injection allowing dissociation from anti-FX Nanobody®. The running buffer was also for dilution of anti-FX Nb and FX samples. Regeneration of the chip was achieved using a regeneration buffer consisting of 3M MgCl₂, 30 seconds contact time, and a 30 μL/min flow rate. The binding data were collected at 25° C. and were analysed according to a 1:1 model using BiaEvaluation 4.1 supplied by the manufacturer (Biacore AB, Uppsala, Sweden).
Therefore, the reported KD values are determined based on steady state analysis. The strongest binder identified is Nb702C12, while the others Nanobodies® tested binds FX with a slightly higher KD and lower Rₘₐₓ.
Molecule B3 returned a Kd of 960 nM.
Consider B4, for which the Kd was found to be 2400 nM.
Turning to B5, the Kd amounted to 1200 nM.

A further test deals with T9, human plasma-derived Factor X zymogen. Put plainly: apparent KD fitted from FXa generation assay. As for the experimental part:
The ability of the monovalent anti-FX Nanobody® (Nb) to promote FIXa-mediated FX-activation was determined in the presence of a procoagulant phospholipid membrane according to the principles described by Scheiflinger et al. (2008) J Thromb Haemost, 6:315-322. A Fab of mAb 13F62 (IgG1 isotype, variable sequences identified by SEQ ID NO:6 and 7), also found to bind the activation peptide, were included for comparison. Moreover, anti-FX antibodies as disclosed in U.S. Pat. No. 9,334,331 (J327 and L404-k in said publication), corresponding to the anti-FX arm of ACE910); and more recently in WO2018/021450 (J327 D31H and JYL280 in said publication) and WO2018/098363 (BIIB-12-917 represented by SEQ ID NO:427 and 615 in said publication) are stated to be suitable for use as part of anti-FIX/anti-FX bispecific FVIII mimetic compounds were, furthermore, included for comparison.
Each compound was tested individually in a concentration range from 0-1000 nM, 0-2000 nM, 0-4000 nM or 0-8000 nM by pre-incubation with 1-1.5 nM human plasma-derived FIXa (Haematologic Technologies Inc, USA) and 500 μM 25:75 phosphatidyl serine:phosphatidyl choline phospholipid vesicles (Haematologic Technologies Inc, USA) in assay buffer (50 mM HEPES, 100 mM NaCl, 5 mM CaCl₂, 0.1% (w/v) PEG8000, 1 mg/mL bovine serum albumin, pH 7.3) for 10 minutes. The reaction was initiated by addition of human plasma-derived FX (Haematologic Technologies Inc, USA) to a final concentration of 100 nM and a reaction volume of 50 μL. Following 20 minutes activation at room temperature while agitated (1000 RPM), the reaction was quenched by addition of 25 μL quench buffer (50 mM HEPES, 100 mM NaCl, 60 mM EDTA, 0.1% (w/v) PEG8000, 1 mg/mL bovine serum albumin, pH 7.3). The amount of FXa generated was determined by addition of 25 μL 2 mM S-2765 chromogenic substrate for FXa (Chromogenix, Sweden) and chromogenic substrate conversion was followed by measuring absorbance at 405 nm for 10 minutes in a microplate reader. The observed change in 405 nm absorbance (ΔAbs405/min) was fitted to the quadratic binding equation (eq. 1) to obtain the peak stimulatory activity and EC50.
With B1, the Kd was found to be 83.2 nM.
Consider B2, for which the Kd came to 63.9 nM.
With B3, the Kd was determined as 41.9 nM.
B4: the Kd was 66.1 nM.
For the molecule B5, the Kd amounted to 75.4 nM.
On the same count and under the same terms, with B6 the figure was about 1400 nM; with B7, 802 nM.

The record behind these values is patent US20210054097A1 (Novo Nordisk, published 2021).
